Values of other authors, collected in article PMC3472031.
pKd: −log10 of the molar value.

Tests used:
SOS-A peptide = SOS-A peptide (UniProt Q07889)
SOS-E peptide = SOS-E peptide (UniProt Q07889)
[1] = molecular target: EspFU peptide (Escherichia coli) (UniProt P0DJ88); assay: ITC
EspFU (Escherichia coli) = EspFU (Escherichia coli) (UniProt P0DJ88)
[2] = molecular target: EspFU R475 R475 (fifth 47-residue repeat) (Escherichia coli O157:H7) (UniProt P0DJ88)

## Grb2 (from UniProt P62993)
SOS-A peptide
  pKd: 4.27
SOS-E peptide
  pKd: 5.46

## IRTKS SH3 (from UniProt Q9UHR4)
[1]
  pKd: 6.30

## N-WASP 193-501 (from UniProt O00401)
EspFU (Escherichia coli)
  pKd: 7.46

## N-WASPC 193-501 (from UniProt O00401)
[2]
  pKd: 7.46
